# Measured values from publication PMC6372068 (Nature, 2018).
# T1: methionyl-tRNA synthetase MetRS, C-terminally fused to GFP (S. cerevisiae, UniProt P00958 1-751)
# T1 sequence: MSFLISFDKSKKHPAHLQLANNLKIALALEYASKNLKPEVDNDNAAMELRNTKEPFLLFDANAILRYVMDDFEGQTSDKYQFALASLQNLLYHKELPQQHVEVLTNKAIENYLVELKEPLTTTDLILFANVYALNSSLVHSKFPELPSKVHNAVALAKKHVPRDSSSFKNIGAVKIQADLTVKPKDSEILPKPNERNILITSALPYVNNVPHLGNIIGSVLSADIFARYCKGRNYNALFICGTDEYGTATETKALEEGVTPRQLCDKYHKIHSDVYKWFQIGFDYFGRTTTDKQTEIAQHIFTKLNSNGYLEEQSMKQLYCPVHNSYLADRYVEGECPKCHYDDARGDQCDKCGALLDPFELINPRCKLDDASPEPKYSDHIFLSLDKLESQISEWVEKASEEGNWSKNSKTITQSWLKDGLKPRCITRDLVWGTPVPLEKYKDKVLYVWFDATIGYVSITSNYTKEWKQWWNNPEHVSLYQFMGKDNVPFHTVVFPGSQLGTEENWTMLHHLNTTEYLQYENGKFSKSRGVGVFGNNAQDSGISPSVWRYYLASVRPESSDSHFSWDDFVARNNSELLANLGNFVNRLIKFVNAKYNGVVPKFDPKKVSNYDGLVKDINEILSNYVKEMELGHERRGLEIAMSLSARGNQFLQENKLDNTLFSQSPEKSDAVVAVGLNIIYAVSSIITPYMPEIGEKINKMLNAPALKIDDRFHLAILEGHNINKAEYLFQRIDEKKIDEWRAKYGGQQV
# Experiments:
# [1] = biological target: fatty acid synthase (FAS) α subunit, C-terminally fused to GFP (S. cerevisiae) (UniProt P19097); assay: co-IP
# [2] = biological target: T2, fatty acid synthase (FAS) β subunit, C-terminally fused to GFP (S. cerevisiae, UniProt P07149 1-2051); assay: selective ribosome profiling
# T2 sequence (P07149 whole entry, the tested form may be a part): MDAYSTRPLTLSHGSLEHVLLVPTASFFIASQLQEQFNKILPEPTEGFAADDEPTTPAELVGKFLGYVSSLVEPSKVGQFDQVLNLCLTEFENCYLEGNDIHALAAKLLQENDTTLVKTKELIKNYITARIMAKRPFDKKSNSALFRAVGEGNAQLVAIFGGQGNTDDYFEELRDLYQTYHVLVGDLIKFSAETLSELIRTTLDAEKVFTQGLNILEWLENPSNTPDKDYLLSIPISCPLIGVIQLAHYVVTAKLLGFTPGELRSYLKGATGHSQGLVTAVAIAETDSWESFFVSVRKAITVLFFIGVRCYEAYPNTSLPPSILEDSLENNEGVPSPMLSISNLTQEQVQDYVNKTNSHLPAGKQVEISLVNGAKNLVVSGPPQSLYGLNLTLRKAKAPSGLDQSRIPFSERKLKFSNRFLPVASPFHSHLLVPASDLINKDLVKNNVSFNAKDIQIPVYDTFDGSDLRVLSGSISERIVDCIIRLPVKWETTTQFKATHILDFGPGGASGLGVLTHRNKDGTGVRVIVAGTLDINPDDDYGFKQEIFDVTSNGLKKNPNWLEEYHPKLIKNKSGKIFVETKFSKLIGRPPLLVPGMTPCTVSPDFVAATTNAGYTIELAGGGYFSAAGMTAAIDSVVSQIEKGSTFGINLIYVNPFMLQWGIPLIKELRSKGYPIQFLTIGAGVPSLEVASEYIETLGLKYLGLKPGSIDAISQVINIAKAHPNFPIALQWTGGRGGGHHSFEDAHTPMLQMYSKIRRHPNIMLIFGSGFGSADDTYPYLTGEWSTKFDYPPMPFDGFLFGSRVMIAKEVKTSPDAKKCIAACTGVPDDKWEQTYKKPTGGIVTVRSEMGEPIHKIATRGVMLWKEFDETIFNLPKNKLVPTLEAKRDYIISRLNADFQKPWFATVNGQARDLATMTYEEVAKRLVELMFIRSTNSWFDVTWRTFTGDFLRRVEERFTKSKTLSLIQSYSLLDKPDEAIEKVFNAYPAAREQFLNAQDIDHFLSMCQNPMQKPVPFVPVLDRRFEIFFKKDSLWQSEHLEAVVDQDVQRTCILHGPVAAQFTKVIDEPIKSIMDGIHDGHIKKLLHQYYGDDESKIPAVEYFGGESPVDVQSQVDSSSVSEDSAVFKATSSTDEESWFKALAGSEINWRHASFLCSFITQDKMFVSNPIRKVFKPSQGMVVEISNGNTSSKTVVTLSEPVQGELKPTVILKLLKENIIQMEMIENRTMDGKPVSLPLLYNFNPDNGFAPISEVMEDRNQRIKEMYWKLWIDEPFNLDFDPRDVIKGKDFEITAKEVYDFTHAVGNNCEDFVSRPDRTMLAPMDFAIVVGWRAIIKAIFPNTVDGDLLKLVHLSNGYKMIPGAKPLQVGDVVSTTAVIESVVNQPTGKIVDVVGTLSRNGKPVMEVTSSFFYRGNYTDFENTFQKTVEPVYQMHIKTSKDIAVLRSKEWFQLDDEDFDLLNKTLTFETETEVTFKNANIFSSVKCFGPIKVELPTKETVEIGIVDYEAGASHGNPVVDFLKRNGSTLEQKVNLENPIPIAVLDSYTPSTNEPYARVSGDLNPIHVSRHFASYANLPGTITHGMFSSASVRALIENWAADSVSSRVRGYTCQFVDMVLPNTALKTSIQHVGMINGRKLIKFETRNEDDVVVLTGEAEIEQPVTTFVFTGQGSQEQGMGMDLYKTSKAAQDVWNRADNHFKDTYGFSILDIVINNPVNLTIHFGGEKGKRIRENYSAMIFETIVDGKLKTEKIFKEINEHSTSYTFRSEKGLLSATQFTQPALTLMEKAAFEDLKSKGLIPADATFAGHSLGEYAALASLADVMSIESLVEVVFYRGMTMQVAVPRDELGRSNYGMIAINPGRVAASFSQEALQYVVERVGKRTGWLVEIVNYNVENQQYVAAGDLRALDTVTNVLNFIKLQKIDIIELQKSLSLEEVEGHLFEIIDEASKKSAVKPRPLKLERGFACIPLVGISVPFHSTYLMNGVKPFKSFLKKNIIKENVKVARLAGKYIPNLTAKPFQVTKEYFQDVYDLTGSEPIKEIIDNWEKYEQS
# [3] = biological target: T2, fatty acid synthase (FAS) β subunit, …; assay: co-IP
# [4] = biological target: T1, methionyl-tRNA synthetase MetRS, …; assay: selective ribosome profiling
molecule,measurement,setting,value
"FAS β subunit, untagged, of the mature FAS, P07149 1-2051",stoichiometry N,[1],1
nascent FAS α subunit (ribosome-nascent chain complexes) (natural protein) MKPEVEQELAHILLTELLAYQFASPVRWIETQDVFLKDFNTERVVEIGPSPTLAGMAQRTLKNKYESYDAALSLHREILCYSKDAKEIYYTPDPSELAAKEEPAKEEAPAPTPAASAPAPAAAAPAPVAAAAPAAAAAEIADEPVKASLLLHVLVAHKLKKSLDSIPMSKTIKDLVGGKSTVQNEILGDLGKEFGTTPEKPEETPLEELAETFQDTFSGALGKQSSSLLSRLISSKMPGGFTITVARKYLQTRWGLPSGRQDGVLLVALSNEPAARLGSEADAKAFLDSMAQKYASIVGVDLSSAASASGAAGAGAAAGAAMIDAGALEEITKDHKVLARQQLQVLARYLKMDLDNGERKFLKEKDTVAELQAQLDYLNAELGEFFVNGVATSFSRKKARTFDSSWNWAKQSLLSLYFEIIHGVLKNVDREVVSEAINIMNRSNDALIKFMEYHISNTDETKGENYQLVKTLGEQLIENCKQVLDVDPVYKDVAKPTGPKTAIDKNGNITYSEEPREKVRKLSQYVQEMALGGPITKESQPTIEEDLTRVYKAISAQADKQDISSSTRVEFEKLYSDLMKFLESSKEIDPSQTTQLAGMDVEDALDKDSTKEVASLPNKSTISKTVSSTIPRETIPFLHLRKKTPAGDWKYDRQLSSLFLDGLEKAAFNGVTFKDKYVLITGAGKGSIGAEVLQGLLQGGAKVVVTTSRFSKQVTDYYQSIYAKYGAKGSTLIVVPFNQGSKQDVEALIEFIYDTEKNGGLGWDLDAIIPFAAIPEQGIELEHIDSKSEFAHRIMLTNILRMMGCVKKQKSARGIETRPAQVILPMSPNHGTFGGDGMYSESKLSLETLFNRWHSESWANQLTVCGAIIGWTRGTGLMSANNIIAEGIEKMGVRTFSQKEMAFNLLGLLTPEVVELCQKSPVMADLNGGLQFVPELKEFTAKLRKELVETSEVRKAVSIETALEHKVVNGNSADAAYAQVEIQPRANIQLDFPELKPYKQVKQIAPAELEGLLDLERVIVVTGFAEVGPWGSARTRWEMEAFGEFSLEGCVEMAWIMGFISYHNGNLKGRPYTGWVDSKTKEPVDDKDVKAKYETSILEHSGIRLIEPELFNGYNPEKKEMIQEVIVEEDLEPFEASKETAEQFKHQHGDKVDIFEIPETGEYSVKLLKGATLYIPKALRFDRLVAGQIPTGWNAKTYGISDDIISQVDPITLFVLVSVVEAFIASGITDPYEMYKYVHVSEVGNCSGSGMGGVSALRGMFKDRFKDEPVQNDILQESFINTMSAWVNMLLISSSGPIKTPVGACATSVESVDIGVETILSGKARICIVGGYDDFQEEGSFEFGNMKATSNTLEEFEHGRTPAEMSRPATTTRNGFMEAQGAGIQIIMQADLALKMGVPIYGIVAMAATATDKIGRSVPAPGKGILTTAREHHSSVKYASPNLNMKYRKRQLVTREAQIKDWVENELEALKLEAEEIPSEDQNEFLLERTREIHNEAESQLRAAQQQWGNDFYKRDPRIAPLRGALATYGLTIDDLGVASFHGTSTKANDKNESATINEMMKHLGRSEGNPVIGVFQKFLTGHPKGAAGAWMMNGALQILNSGIIPGNRNADNVDKILEQFEYVLYPSKTLKTDGVRAVSITSFGFGQKGGQAIVVHPDYLYGAITEDRYNEYVAKVSAREKSAYKFFHNGMIYNKLFVSKEHAPYTDELEEDVYLDPLARVSKDKKSGSLTFNSKNIQSKDSYINANTIETAKMIENMTKEKVSNGGVGVDVELITSINVENDTFIERNFTPQEIEYCSAQPSVQSSFAGTWSAKEAVFKSLGVKSLGGGAALKDIEIVRVNKNAPAVELHGNAKKAAEEAGVTDVKVSISHDDLQAVAVAVSTKK,fold enrichment of selected footprints over total ribosome-protected footprints,[2],~40 fold
"FAS α subunit, untagged, of the mature FAS (natural protein) MKPEVEQELAHILLTELLAYQFASPVRWIETQDVFLKDFNTERVVEIGPSPTLAGMAQRTLKNKYESYDAALSLHREILCYSKDAKEIYYTPDPSELAAKEEPAKEEAPAPTPAASAPAPAAAAPAPVAAAAPAAAAAEIADEPVKASLLLHVLVAHKLKKSLDSIPMSKTIKDLVGGKSTVQNEILGDLGKEFGTTPEKPEETPLEELAETFQDTFSGALGKQSSSLLSRLISSKMPGGFTITVARKYLQTRWGLPSGRQDGVLLVALSNEPAARLGSEADAKAFLDSMAQKYASIVGVDLSSAASASGAAGAGAAAGAAMIDAGALEEITKDHKVLARQQLQVLARYLKMDLDNGERKFLKEKDTVAELQAQLDYLNAELGEFFVNGVATSFSRKKARTFDSSWNWAKQSLLSLYFEIIHGVLKNVDREVVSEAINIMNRSNDALIKFMEYHISNTDETKGENYQLVKTLGEQLIENCKQVLDVDPVYKDVAKPTGPKTAIDKNGNITYSEEPREKVRKLSQYVQEMALGGPITKESQPTIEEDLTRVYKAISAQADKQDISSSTRVEFEKLYSDLMKFLESSKEIDPSQTTQLAGMDVEDALDKDSTKEVASLPNKSTISKTVSSTIPRETIPFLHLRKKTPAGDWKYDRQLSSLFLDGLEKAAFNGVTFKDKYVLITGAGKGSIGAEVLQGLLQGGAKVVVTTSRFSKQVTDYYQSIYAKYGAKGSTLIVVPFNQGSKQDVEALIEFIYDTEKNGGLGWDLDAIIPFAAIPEQGIELEHIDSKSEFAHRIMLTNILRMMGCVKKQKSARGIETRPAQVILPMSPNHGTFGGDGMYSESKLSLETLFNRWHSESWANQLTVCGAIIGWTRGTGLMSANNIIAEGIEKMGVRTFSQKEMAFNLLGLLTPEVVELCQKSPVMADLNGGLQFVPELKEFTAKLRKELVETSEVRKAVSIETALEHKVVNGNSADAAYAQVEIQPRANIQLDFPELKPYKQVKQIAPAELEGLLDLERVIVVTGFAEVGPWGSARTRWEMEAFGEFSLEGCVEMAWIMGFISYHNGNLKGRPYTGWVDSKTKEPVDDKDVKAKYETSILEHSGIRLIEPELFNGYNPEKKEMIQEVIVEEDLEPFEASKETAEQFKHQHGDKVDIFEIPETGEYSVKLLKGATLYIPKALRFDRLVAGQIPTGWNAKTYGISDDIISQVDPITLFVLVSVVEAFIASGITDPYEMYKYVHVSEVGNCSGSGMGGVSALRGMFKDRFKDEPVQNDILQESFINTMSAWVNMLLISSSGPIKTPVGACATSVESVDIGVETILSGKARICIVGGYDDFQEEGSFEFGNMKATSNTLEEFEHGRTPAEMSRPATTTRNGFMEAQGAGIQIIMQADLALKMGVPIYGIVAMAATATDKIGRSVPAPGKGILTTAREHHSSVKYASPNLNMKYRKRQLVTREAQIKDWVENELEALKLEAEEIPSEDQNEFLLERTREIHNEAESQLRAAQQQWGNDFYKRDPRIAPLRGALATYGLTIDDLGVASFHGTSTKANDKNESATINEMMKHLGRSEGNPVIGVFQKFLTGHPKGAAGAWMMNGALQILNSGIIPGNRNADNVDKILEQFEYVLYPSKTLKTDGVRAVSITSFGFGQKGGQAIVVHPDYLYGAITEDRYNEYVAKVSAREKSAYKFFHNGMIYNKLFVSKEHAPYTDELEEDVYLDPLARVSKDKKSGSLTFNSKNIQSKDSYINANTIETAKMIENMTKEKVSNGGVGVDVELITSINVENDTFIERNFTPQEIEYCSAQPSVQSSFAGTWSAKEAVFKSLGVKSLGGGAALKDIEIVRVNKNAPAVELHGNAKKAAEEAGVTDVKVSISHDDLQAVAVAVSTKK",stoichiometry N,[3],1
nascent GluRS (ribosome-nascent chain complexes) (natural protein) MPSTLTINGKAPIVAYAELIAARIVNALAPNSIAIKLVDDKKAPAAKLDDATEDVFNKITSKFAAIFDNGDKEQVAKWVNLAQKELVIKNFAKLSQSLETLDSQLNLRTFILGGLKYSAADVACWGALRSNGMCGSIIKNKVDVNVSRWYTLLEMDPIFGEAHDFLSKSLLELKKSANVGKKKETHKANFEIDLPDAKMGEVVTRFPPEPSGYLHIGHAKAALLNQYFAQAYKGKLIIRFDDTNPSKEKEEFQDSILEDLDLLGIKGDRITYSSDYFQEMYDYCVQMIKDGKAYCDDTPTEKMREERMDGVASARRDRSVEENLRIFTEEMKNGTEEGLKNCVRAKIDYKALNKTLRDPVIYRCNLTPHHRTGSTWKIYPTYDFCVPIVDAIEGVTHALRTIEYRDRNAQYDWMLQALRLRKVHIWDFARINFVRTLLSKRKLQWMVDKDLVGNWDDPRFPTVRGVRRRGMTVEGLRNFVLSQGPSRNVINLEWNLIWAFNKKVIDPIAPRHTAIVNPVKIHLEGSEAPQEPKIEMKPKHKKNPAVGEKKVIYYKDIVVDKDDADVINVDEEVTLMDWGNVIITKKNDDGSMVAKLNLEGDFKKTKHKLTWLADTKDVVPVDLVDFDHLITKDRLEEDESFEDFLTPQTEFHTDAIADLNVKDMKIGDIIQFERKGYYRLDALPKDGKPYVFFTIPDGKSVNKYGAKK,fold enrichment in footprints,[4],≥ 30 fold
